Values quoted from earlier work in paper PMC6873222.

Tests used:
SIRPG ECD (Homo sapiens) = SIRPG ECD (Homo sapiens) (UniProt Q9P1W8)
CD55 ECD (Homo sapiens) = CD55 ECD (Homo sapiens) (UniProt P08174)
Chain of UniProt P08174 (P08174 35-353): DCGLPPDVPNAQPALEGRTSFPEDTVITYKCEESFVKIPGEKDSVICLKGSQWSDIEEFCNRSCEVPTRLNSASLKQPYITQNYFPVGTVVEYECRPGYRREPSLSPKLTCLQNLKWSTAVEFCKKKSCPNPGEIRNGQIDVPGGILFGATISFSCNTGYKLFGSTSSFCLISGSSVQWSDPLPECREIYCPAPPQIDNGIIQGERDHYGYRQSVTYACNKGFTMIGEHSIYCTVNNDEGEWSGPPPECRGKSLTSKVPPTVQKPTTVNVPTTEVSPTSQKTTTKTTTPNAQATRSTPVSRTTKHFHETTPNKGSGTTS

Chain of UniProt Q9P1W8 (Q9P1W8 29-360): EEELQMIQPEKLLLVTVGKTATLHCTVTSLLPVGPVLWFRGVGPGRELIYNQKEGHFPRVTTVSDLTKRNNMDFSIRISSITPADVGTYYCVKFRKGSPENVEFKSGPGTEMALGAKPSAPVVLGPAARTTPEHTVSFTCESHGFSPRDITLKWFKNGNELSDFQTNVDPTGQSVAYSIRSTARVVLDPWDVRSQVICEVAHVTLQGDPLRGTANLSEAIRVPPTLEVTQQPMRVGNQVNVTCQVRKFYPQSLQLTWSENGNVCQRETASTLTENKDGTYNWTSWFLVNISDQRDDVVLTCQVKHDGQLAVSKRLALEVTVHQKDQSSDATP

Row | Kd (SIRPG ECD (Homo sapiens)) [µM] | Kd (CD55 ECD (Homo sapiens)) [µM] | Substance
1 | 23 |  | CD47 ECD (from UniProt Q08722)
2 |  | > 80 | CD97 ECD (from UniProt P48960)
